Sequences and labels used below:
B1: DNA polymerase delta subunit 4 (Homo sapiens), Q9HCU8 (parent)
chain: MGRKRLITDSYPVVKRREGPAGHSKGELAPELGEEPQPRDEEEAELELLRQFDLAWQYGPCTGITRLQRWCRAKQMGLEPPPEVWQVLKTHPGDPRFQCSLWHLYPL

Variants of B1 are the subject of this assay. As to conditions: with pcna_human PCNA.
In the case of I7A;S10A;Y11A, the “effect of a mutation on the interaction” value was “disrupting interaction”.

(Values after IntAct's records for PubMed 16510448.)
